Numbered stars: 1 amine (or outer) side, 2 acyl side, 3 side chain; on linkers, the order of the positions; unused ones are H or OH. Square brackets hold non-standard residues; d marks the D form. Side chains are listed from the residue outwards. Ends that are not written are not given here. * marks the point of attachment. C20 diacid = O=C(O)CCCCCCCCCCCCCCCCCCC(=O)*; γGlu = O=C(O)[C@H](CCC(=O)[*:2])N[*:1]; αMeL = CC(C)C[C@](C)(N)C(=O)O; AEEA = NCCOCCOCC(=O)O; Aib = CC(C)(N)C(=O)O
T1: human GIP receptor (human, UniProt P48546 22-466)
T1 construct: whole, on cells; Used as crude membranes of stably transfected CHO cells; also called hGIPR
T1 sequence (looked up): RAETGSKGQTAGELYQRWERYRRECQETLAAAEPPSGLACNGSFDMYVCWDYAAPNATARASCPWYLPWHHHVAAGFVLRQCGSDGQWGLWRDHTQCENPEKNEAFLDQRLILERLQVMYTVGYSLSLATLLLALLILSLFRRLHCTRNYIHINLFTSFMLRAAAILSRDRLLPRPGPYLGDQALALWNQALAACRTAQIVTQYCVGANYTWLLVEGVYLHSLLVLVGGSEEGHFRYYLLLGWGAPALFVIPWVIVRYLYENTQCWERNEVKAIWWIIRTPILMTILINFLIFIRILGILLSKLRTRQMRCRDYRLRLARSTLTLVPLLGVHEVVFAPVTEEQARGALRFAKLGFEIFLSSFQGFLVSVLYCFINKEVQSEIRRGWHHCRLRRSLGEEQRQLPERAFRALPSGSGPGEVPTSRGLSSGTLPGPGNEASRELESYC


How the values were obtained:
human GLP-1 receptor = molecular target: T2, human GLP-1 receptor (human, UniProt P43220 24-463); assay: SPA, [125I]-GLP-1 displacement, hGLP-1R membranes
T2 construct: whole, on cells; Used as crude membranes of stably transfected HEK293 cells; also called hGLP1R; hGLP-1R

human GIP receptor = molecular target: T1, human GIP receptor; assay: SPA, [125I]-GIP displacement, hGIPR membranes
human glucagon receptor = molecular target: T3, human glucagon receptor (human, UniProt P47871 26-477); assay: SPA, [125I]-Gcg displacement, hGcgR membranes
T3 construct: whole, on cells; Used as crude membranes of stably transfected HEK293 cells; also called hGcgR; hGLcgR
T3 sequence (P47871 26-477): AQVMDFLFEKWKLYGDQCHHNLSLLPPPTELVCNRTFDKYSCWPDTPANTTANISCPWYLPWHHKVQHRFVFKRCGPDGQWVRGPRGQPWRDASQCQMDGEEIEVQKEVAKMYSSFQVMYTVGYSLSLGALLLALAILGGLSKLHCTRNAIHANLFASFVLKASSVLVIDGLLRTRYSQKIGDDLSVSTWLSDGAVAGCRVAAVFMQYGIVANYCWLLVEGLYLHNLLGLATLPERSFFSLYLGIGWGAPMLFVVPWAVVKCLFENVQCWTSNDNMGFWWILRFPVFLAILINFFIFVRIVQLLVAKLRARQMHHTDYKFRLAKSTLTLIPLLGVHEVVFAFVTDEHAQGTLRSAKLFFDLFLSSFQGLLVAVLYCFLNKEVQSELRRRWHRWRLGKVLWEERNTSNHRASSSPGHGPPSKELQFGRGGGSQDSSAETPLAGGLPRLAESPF

Binder | Ki (human GLP-1 receptor) | Ki (human GIP receptor) | Ki (human glucagon receptor)
H[Aib]EGTFTSDYSI[αMeL]LDEK([AEEA-AEEA-γGlu-C20 diacid])AQHAFIEYLIEGGPSSGAPPPS-NH2 (N-terminus assumed; SMILES CC[C@H](C)[C@H](NC(=O)[C@H](CC(C)C)NC(=O)[C@H](Cc1ccc(O)cc1)NC(=O)[C@H](CCC(=O)O)NC(=O)[C@@H](NC(=O)[C@H](Cc1ccccc1)NC(=O)[C@H](C)NC(=O)[C@H](Cc1c[nH]cn1)NC(=O)[C@H](CCC(N)=O)NC(=O)[C@H](C)NC(=O)[C@H](CCCCNC(=O)COCCOCCNC(=O)COCCOCCNC(=O)CC[C@H](NC(=O)CCCCCCCCCCCCCCCCCCC(=O)O)C(=O)O)NC(=O)[C@H](CCC(=O)O)NC(=O)[C@H](CC(=O)O)NC(=O)[C@H](CC(C)C)NC(=O)[C@](C)(CC(C)C)NC(=O)[C@@H](NC(=O)[C@H](CO)NC(=O)[C@H](Cc1ccc(O)cc1)NC(=O)[C@H](CC(=O)O)NC(=O)[C@H](CO)NC(=O)[C@@H](NC(=O)[C@H](Cc1ccccc1)NC(=O)[C@@H](NC(=O)CNC(=O)[C@H](CCC(=O)O)NC(=O)C(C)(C)NC(=O)[C@@H](N)Cc1c[nH]cn1)[C@@H](C)O)[C@@H](C)O)[C@@H](C)CC)[C@@H](C)CC)C(=O)N[C@@H](CCC(=O)O)C(=O)NCC(=O)NCC(=O)N1CCC[C@H]1C(=O)N[C@@H](CO)C(=O)N[C@@H](CO)C(=O)NCC(=O)N[C@@H](C)C(=O)N1CCC[C@H]1C(=O)N1CCC[C@H]1C(=O)N1CCC[C@H]1C(=O)N[C@@H](CO)C(N)=O) [Example 55] | 7.29 nM | 6.24 nM | 
Y[Aib]EGTFTSDYSI[αMeL]LDEK([AEEA-AEEA-γGlu-C20 diacid])AQHAFIEYLIEGGPSSGAPPPS-NH2 (N-terminus assumed; SMILES CC[C@H](C)[C@H](NC(=O)[C@H](CC(C)C)NC(=O)[C@H](Cc1ccc(O)cc1)NC(=O)[C@H](CCC(=O)O)NC(=O)[C@@H](NC(=O)[C@H](Cc1ccccc1)NC(=O)[C@H](C)NC(=O)[C@H](Cc1c[nH]cn1)NC(=O)[C@H](CCC(N)=O)NC(=O)[C@H](C)NC(=O)[C@H](CCCCNC(=O)COCCOCCNC(=O)COCCOCCNC(=O)CC[C@H](NC(=O)CCCCCCCCCCCCCCCCCCC(=O)O)C(=O)O)NC(=O)[C@H](CCC(=O)O)NC(=O)[C@H](CC(=O)O)NC(=O)[C@H](CC(C)C)NC(=O)[C@](C)(CC(C)C)NC(=O)[C@@H](NC(=O)[C@H](CO)NC(=O)[C@H](Cc1ccc(O)cc1)NC(=O)[C@H](CC(=O)O)NC(=O)[C@H](CO)NC(=O)[C@@H](NC(=O)[C@H](Cc1ccccc1)NC(=O)[C@@H](NC(=O)CNC(=O)[C@H](CCC(=O)O)NC(=O)C(C)(C)NC(=O)[C@@H](N)Cc1ccc(O)cc1)[C@@H](C)O)[C@@H](C)O)[C@@H](C)CC)[C@@H](C)CC)C(=O)N[C@@H](CCC(=O)O)C(=O)NCC(=O)NCC(=O)N1CCC[C@H]1C(=O)N[C@@H](CO)C(=O)N[C@@H](CO)C(=O)NCC(=O)N[C@@H](C)C(=O)N1CCC[C@H]1C(=O)N1CCC[C@H]1C(=O)N1CCC[C@H]1C(=O)N[C@@H](CO)C(N)=O) [Example 56] | 10.3 nM | 0.148 nM | 
Y[Aib]EGTFTSDYSILLD[Aib]IAQK([AEEA-AEEA-γGlu-C20 diacid])AFIEYLIEGGPSSGAPPPS-NH2 (N-terminus assumed; SMILES CC[C@H](C)[C@H](NC(=O)[C@H](CC(C)C)NC(=O)[C@H](Cc1ccc(O)cc1)NC(=O)[C@H](CCC(=O)O)NC(=O)[C@@H](NC(=O)[C@H](Cc1ccccc1)NC(=O)[C@H](C)NC(=O)[C@H](CCCCNC(=O)COCCOCCNC(=O)COCCOCCNC(=O)CC[C@H](NC(=O)CCCCCCCCCCCCCCCCCCC(=O)O)C(=O)O)NC(=O)[C@H](CCC(N)=O)NC(=O)[C@H](C)NC(=O)[C@@H](NC(=O)C(C)(C)NC(=O)[C@H](CC(=O)O)NC(=O)[C@H](CC(C)C)NC(=O)[C@H](CC(C)C)NC(=O)[C@@H](NC(=O)[C@H](CO)NC(=O)[C@H](Cc1ccc(O)cc1)NC(=O)[C@H](CC(=O)O)NC(=O)[C@H](CO)NC(=O)[C@@H](NC(=O)[C@H](Cc1ccccc1)NC(=O)[C@@H](NC(=O)CNC(=O)[C@H](CCC(=O)O)NC(=O)C(C)(C)NC(=O)[C@@H](N)Cc1ccc(O)cc1)[C@@H](C)O)[C@@H](C)O)[C@@H](C)CC)[C@@H](C)CC)[C@@H](C)CC)C(=O)N[C@@H](CCC(=O)O)C(=O)NCC(=O)NCC(=O)N1CCC[C@H]1C(=O)N[C@@H](CO)C(=O)N[C@@H](CO)C(=O)NCC(=O)N[C@@H](C)C(=O)N1CCC[C@H]1C(=O)N1CCC[C@H]1C(=O)N1CCC[C@H]1C(=O)N[C@@H](CO)C(N)=O) [Example 13] | 31.1 nM | 0.296 nM | 
YXEGTFTSDYSIXLDSKAQXAFIEYLIEGGPSSGAPPPS (Aib2; αMeL13; K17((2-[2-(2-Amino-ethoxy)-ethoxy]-acetyl)2-(γ-Glu)-CO-(CH2)18-CO2H); Aib20; C-terminal NH2) [Example 52] | 5.81 nM | 0.0342 nM | 
YXEGTFTSDYSXLLDKKAQXAFIEYLIEGGPSSGAPPPS (Aib2; D-Ile12; K17((2-[2-(2-Amino-ethoxy)-ethoxy]-acetyl)2-(γ-Glu)-CO-(CH2)18-CO2H); Aib20; C-terminal NH2) [Example 82] | 6.82 nM | 14.9 nM | 
YXEGTFTSDYSILLDKKAQXAFIXYLIEGGPSSGAPPPS (Aib2; K17((2-[2-(2-Amino-ethoxy)-ethoxy]-acetyl)2-(γ-Glu)-CO-(CH2)18-CO2H); Aib20; D-Glu24; C-terminal NH2) [Example 84] | 10.2 nM | 0.143 nM | 
YXEGTXTSDESILLDKKAQXAFIEYLIEGGPSSGAPPPS (Aib2; αMeF6; K17((2-[2-(2-Amino-ethoxy)-ethoxy]-acetyl)2-(γ-Glu)-CO-(CH2)18-CO2H); Aib20; C-terminal NH2) [Example 130] | 3.66 nM | 0.177 nM | 
Y[Aib]EGTFTSDYSILLDKK([AEEA-AEEA-γGlu-C20 diacid])AQ[Aib]AFIEYLIEAGPSSGAPPPS-NH2 (N-terminus assumed; SMILES CC[C@H](C)[C@H](NC(=O)[C@H](CC(C)C)NC(=O)[C@H](Cc1ccc(O)cc1)NC(=O)[C@H](CCC(=O)O)NC(=O)[C@@H](NC(=O)[C@H](Cc1ccccc1)NC(=O)[C@H](C)NC(=O)C(C)(C)NC(=O)[C@H](CCC(N)=O)NC(=O)[C@H](C)NC(=O)[C@H](CCCCNC(=O)COCCOCCNC(=O)COCCOCCNC(=O)CC[C@H](NC(=O)CCCCCCCCCCCCCCCCCCC(=O)O)C(=O)O)NC(=O)[C@H](CCCCN)NC(=O)[C@H](CC(=O)O)NC(=O)[C@H](CC(C)C)NC(=O)[C@H](CC(C)C)NC(=O)[C@@H](NC(=O)[C@H](CO)NC(=O)[C@H](Cc1ccc(O)cc1)NC(=O)[C@H](CC(=O)O)NC(=O)[C@H](CO)NC(=O)[C@@H](NC(=O)[C@H](Cc1ccccc1)NC(=O)[C@@H](NC(=O)CNC(=O)[C@H](CCC(=O)O)NC(=O)C(C)(C)NC(=O)[C@@H](N)Cc1ccc(O)cc1)[C@@H](C)O)[C@@H](C)O)[C@@H](C)CC)[C@@H](C)CC)C(=O)N[C@@H](CCC(=O)O)C(=O)N[C@@H](C)C(=O)NCC(=O)N1CCC[C@H]1C(=O)N[C@@H](CO)C(=O)N[C@@H](CO)C(=O)NCC(=O)N[C@@H](C)C(=O)N1CCC[C@H]1C(=O)N1CCC[C@H]1C(=O)N1CCC[C@H]1C(=O)N[C@@H](CO)C(N)=O) [Example 86] | 3.74 nM | 0.0401 nM | 
YXEGTXTSDASIXLDEKAQXEFIXYLIEGGPSSGAPPPS (Aib2; αMeF(2F)6; αMeL13; K17((2-[2-(2-Amino-ethoxy)-ethoxy]-acetyl)2-(γ-Glu)-CO-(CH2)18-CO2H); Aib20; D-Glu24; C-terminal NH2) [Example 192] | 2.89 nM | 0.118 nM | 
YXEGTXTSDYSIXLDXKAQXEFIXYLIEGGPSSGAPPPS (Aib2; αMeF(2F)6; αMeL13; Dap16; K17((2-[2-(2-Amino-ethoxy)-ethoxy]-acetyl)2-(γ-Glu)-CO-(CH2)16-CO2H); Aib20; D-Glu24; C-terminal NH2) [Example 210] | 1.58 nM | 0.0399 nM | 
YXEGTXTSDYSIXLDXKAQXEFIXYLIEGGPSSGAPPPS (Aib2; αMeF(2F)6; αMeL13; Dab16; K17((2-[2-(2-Amino-ethoxy)-ethoxy]-acetyl)2-(γ-Glu)-CO-(CH2)16-CO2H); Aib20; D-Glu24; C-terminal NH2) [Example 209] | 1.43 nM | 0.0664 nM | 
YXEGTXTSDYSIXLDEKAQXEFIXYLIEGGPSSGAPPPS (Aib2; αMeF(2F)6; αMeL13; K17((2-[2-(2-Amino-ethoxy)-ethoxy]-acetyl)2-(γ-Glu)-CO-(CH2)14-CO2H); Aib20; D-Glu24; C-terminal NH2) [Example 208] | 2.13 nM | 0.0537 nM | 
YXEGTXTSDYSIXLDKKAQXTFIEYLIEGGPSSGAPPPS (Aib2; αMeF6; αMeL13; K17((2-[2-(2-Amino-ethoxy)-ethoxy]-acetyl)2-(γ-Glu)-CO-(CH2)18-CO2H); Aib20; C-terminal NH2) [Example 139] |  | 0.036 nM | 105 nM
XXEGTXTSDYSIXLDEKAQXEFIEYLIEGGPSSGAPPPS (DesTyr1; Aib2; αMeF(2F)6; αMeL13; K17((2-[2-(2-Amino-ethoxy)-ethoxy]-acetyl)2-(γ-Glu)-CO-(CH2)18-CO2H); Aib20; C-terminal NH2) [Example 134] |  | 0.14 nM | 60.5 nM
YXEGTXTSDXSIXLDEKAQXTFIXYLIEGGPSSGAPPPS (Aib2; αMeF(2F)6; Aib10; αMeL13; K17((2-[2-(2-Amino-ethoxy)-ethoxy]-acetyl)2-(γ-Glu)-CO-(CH2)18-CO2H); Aib20; D-Glu24; C-terminal NH2) [Example 160] | 14.4 nM | 5.98 nM | 

Source: patent US20200024322A1 (Eli Lilly, published 2020)
